The target in the experiment is SARS-CoV-2 spike protein, WT (SARS-CoV-2, UniProt P0DTC2 14-1208). The experiment in a line: virus-free Luminex binding assay, spike on beads.

This note sets out measurements from US20230395187A1 (published 2023).

B1: Imdevimab (RGN87) (antibody, V domains shown)
VH: QVQLVESGGGVVQPGRSLRLSCAASGFTFSNYAMYWVRQAPGKGLEWVAVISYDGSNKYYADSVKGRFTISRDNSKNTLYLQMNSLRTEDTAVYYCASGSDYGDYLLVYWGQGTLVTVSS
VL: QSALTQPASVSGSPGQSITISCTGTSSDVGGYNYVSWYQQHPGKAPKLMIYDVSKRPSGVSNRFSGSKSGNTASLTISGLQSEDEADYYCNSLTSISTWVFGGGTKLTVLG
B1: a half-maximal effect (EC50) was put at 0.082 mg/L.
